Measurements published in the supplement of paper PMC10724198.
± gives the standard deviation of the averaged measurements.

test system: Saccharomyces cerevisiae; test: protein stability index of tFT-peptide fusion (C-terminal peptide) (PSI (0-1 scale)); higher = more stable (slower turnover); settings: genetic background: doa10 deletion; temperature: 30 C
Experimental: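 MPS profiling in S. cerevisiae of the tFT-X12 degron library: putative degron peptides plus stable controls, 12 aa, fused to the C-terminus of a sfGFP-mCherry timer. Cells are FACS-sorted into 8 mCherry/sfGFP bins and deep-sequenced. PSI runs from 0 (unstable) to 1 (stable). Backgrounds are wild type, das1Δ and doa10Δ at 30 °C, and wild type, das1Δ, cdc34-1 and cdc53-1 at 37 °C; 2-3 technical replicates each.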
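Also: PSI is a weighted mean of sequencing reads over stability bins, variants kept only with over 10 reads, mCherry proximal and sfGFP distal, peptide attached via GGGS linker.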

In order of rising protein stability index:
1. LHLLFLPFVVCL  0.0556 ± 0.012
2. LLISPFLFLLVC  0.0594 ± 0.018
3. KLLDHFVKIRVY  0.0632 ± 0.0066
4. LGATYSVQLYVS  0.0746 ± 0.012
5. LLVFWRLWWSLS  0.081 ± 0.026
6. LPASLSLWPLLC  0.0836 ± 0.017
7. LASFCSVCIFIS  0.099 ± 0.0025
8. LAPSRNRSVWLV  0.104 ± 0.012
9. LIFLSISFISSL  0.104 ± 0.043
10. LLCRVSRTRILC  0.104 ± 0.012
11. LLFPRVLVLCFS  0.105 ± 0.016
12. LFWTWVLVGVSV  0.127 ± 0.0013
13. NFVVYHVAIRVP  0.139 ± 0.0025
14. LSFFDYVLLQIA  0.166 ± 0.013
15. LIRVLRVLRHSS  0.167 ± 0.0097
16. LVGVLLAVWSVV  0.168 ± 0.0025
17. LVSWAWIWIFVF  0.171 ± 0.0065
18. LFLVVVVRAGGF  0.187 ± 0.0076
19. KLRELQVRQQLS  0.189 ± 0.021
20. LEPFTGYTVIVM  0.189 ± 0.0054
21. MALAVRVVTCGA  0.191 ± 0.0047
22. LLILIVNLRRIG  0.1983 ± 0.0009
23. KALFPGLLLCAF  0.204 ± 0.0091
24. LLAVIVWIVPPA  0.204 ± 0.0016
25. LLMLWWARVFSG  0.209 ± 0.016
26. MLVLFCLCYILG  0.217 ± 0.013
27. LFLLYVLVSLFV  0.222 ± 0.0045
28. LLLLGVSLFLVR  0.223 ± 0.013
29. LMLGARVSRRIH  0.227 ± 0.02
30. LVCLVASCVRWL  0.237 ± 0.0034
31. LHFHIYLIISPF  0.238 ± 0.011
32. LNALSHCRAICS  0.238 ± 0.0073
33. LYFLLGSLVFVF  0.244 ± 0.0021
34. LGIPKLLCFVCT  0.248 ± 0.0065
35. LLVVFSCFTFMF  0.254 ± 0.027
36. LFHVWSLRFFWL  0.2583 ± 0.00064
37. LAKPTVRKIICV  0.263 ± 0.017
38. LLVKFTFLIIFT  0.27 ± 0.02
39. LASWVVFIWFLW  0.281 ± 0.031
40. LILFMLLSFLTT  0.281 ± 0.016
41. LAISTIQMFKRI  0.295 ± 0.021
42. LFHPPSFSLRLF  0.301 ± 0.038
43. LCFVCLWGYLGV  0.307 ± 0.0054
44. LCFVFVLGFFAF  0.319 ± 0.011
45. LIFFFCSWVFRF  0.327 ± 0.044
46. LGNVTDVMHRLS  0.328 ± 0.0097
47. LFRNIFLFVFLI  0.334 ± 0.0071
48. LRSVVFFCRTLL  0.3373 ± 0.0013
49. LLLPSAPFLFLL  0.3387 ± 0.0022
50. LCTCFLVLLLWC  0.34 ± 0.01
51. LWWTRVILYGYI  0.34 ± 0.0087
52. LGVVLFCFRFCR  0.353 ± 0.0068
53. LFFASFLLIGPF  0.354 ± 0.03
54. LVLGLYGVWLVV  0.355 ± 0.015
55. LLDIYFILLVWF  0.359 ± 0.021
56. LLFLWVLFLPFA  0.361 ± 0.012
57. LVMYRSALIRGH  0.3624 ± 0.00052
58. LCVFRFFLFFFL  0.364 ± 0.019
59. LGLCFFFYSLHS  0.37 ± 0.0054
60. LFLFVGCSVRRL  0.374 ± 0.0049
61. LSYRFVFRFLLF  0.39 ± 0.017
62. LFFFFLPHLILL  0.404 ± 0.058
63. MSHVCICRRLML  0.404 ± 0.028
64. LPSPLLFLPALF  0.405 ± 0.011
65. LVSYHKMAISSF  0.421 ± 0.0095
66. LPPHLPFPLSAA  0.43 ± 0.0083
67. LFDVLFVFSFIF  0.432 ± 0.034
68. LCFLVALASMLF  0.4385 ± 0.0032
69. LVCLFFLSSLFF  0.46 ± 0.016
70. LAEHIFLVLDHG  0.463 ± 0.024
71. LYCGLIFFLRGV  0.468 ± 0.032
72. LFRFVFLLFGFW  0.4885 ± 0.0013
73. LFPVASLCLART  0.513 ± 0.022
74. LSLGVGSDAEGG  0.646 ± 0.021
75. LQSVAFERGGPD  0.647 ± 0.026
76. LDFPPLRLILRL  0.658 ± 0.017
77. MIQPRLANIIIS  0.713 ± 0.024
78. LLVLPFFSLSRF  0.748 ± 0.024

same assay, conditions: genetic background: wild type; temperature: 30 C

In order of rising protein stability index:
1. LLISPFLFLLVC  0.0605 ± 0.014
2. KLLDHFVKIRVY  0.0674 ± 0.024
3. LHLLFLPFVVCL  0.0711 ± 0.025
4. LGATYSVQLYVS  0.0832 ± 0.015
5. LLVFWRLWWSLS  0.0903 ± 0.018
6. LPASLSLWPLLC  0.0983 ± 0.017
7. LLFPRVLVLCFS  0.117 ± 0.024
8. LAPSRNRSVWLV  0.119 ± 0.018
9. LASFCSVCIFIS  0.127 ± 0.033
10. LLCRVSRTRILC  0.128 ± 0.013
11. LIFLSISFISSL  0.15 ± 0.037
12. NFVVYHVAIRVP  0.155 ± 0.019
13. LFWTWVLVGVSV  0.164 ± 0.015
14. LHFHIYLIISPF  0.186 ± 0.034
15. LIRVLRVLRHSS  0.194 ± 0.021
16. LVSWAWIWIFVF  0.194 ± 0.022
17. LVGVLLAVWSVV  0.197 ± 0.019
18. KLRELQVRQQLS  0.199 ± 0.025
19. LSFFDYVLLQIA  0.199 ± 0.028
20. LLVKFTFLIIFT  0.2 ± 0.015
21. LLLPSAPFLFLL  0.201 ± 0.017
22. LFLVVVVRAGGF  0.208 ± 0.022
23. LLAVIVWIVPPA  0.222 ± 0.028
24. MALAVRVVTCGA  0.223 ± 0.031
25. KALFPGLLLCAF  0.232 ± 0.022
26. LLILIVNLRRIG  0.235 ± 0.011
27. MLVLFCLCYILG  0.235 ± 0.037
28. LEPFTGYTVIVM  0.236 ± 0.034
29. LFRNIFLFVFLI  0.241 ± 0.02
30. LLMLWWARVFSG  0.243 ± 0.036
31. LVLGLYGVWLVV  0.243 ± 0.024
32. LASWVVFIWFLW  0.25 ± 0.043
33. LFLLYVLVSLFV  0.251 ± 0.025
34. LLLLGVSLFLVR  0.255 ± 0.018
35. LLDIYFILLVWF  0.258 ± 0.019
36. LFFFFLPHLILL  0.26 ± 0.028
37. LMLGARVSRRIH  0.263 ± 0.049
38. LNALSHCRAICS  0.268 ± 0.028
39. LIFFFCSWVFRF  0.272 ± 0.038
40. LVCLVASCVRWL  0.272 ± 0.027
41. LYFLLGSLVFVF  0.275 ± 0.019
42. LLVVFSCFTFMF  0.279 ± 0.028
43. LFHVWSLRFFWL  0.282 ± 0.027
44. LGIPKLLCFVCT  0.29 ± 0.019
45. LCVFRFFLFFFL  0.291 ± 0.027
46. LILFMLLSFLTT  0.293 ± 0.025
47. LAKPTVRKIICV  0.296 ± 0.04
48. LCTCFLVLLLWC  0.315 ± 0.018
49. LFFASFLLIGPF  0.321 ± 0.037
50. LCFVCLWGYLGV  0.323 ± 0.022
51. LAISTIQMFKRI  0.327 ± 0.022
52. LCFVFVLGFFAF  0.334 ± 0.012
53. LLFLWVLFLPFA  0.342 ± 0.026
54. LFHPPSFSLRLF  0.348 ± 0.025
55. LWWTRVILYGYI  0.353 ± 0.016
56. LRSVVFFCRTLL  0.362 ± 0.015
57. LGVVLFCFRFCR  0.371 ± 0.027
58. LSYRFVFRFLLF  0.372 ± 0.027
59. LGNVTDVMHRLS  0.379 ± 0.012
60. LFLFVGCSVRRL  0.391 ± 0.014
61. LVMYRSALIRGH  0.396 ± 0.03
62. LGLCFFFYSLHS  0.401 ± 0.016
63. LFDVLFVFSFIF  0.42 ± 0.024
64. LFRFVFLLFGFW  0.423 ± 0.034
65. MSHVCICRRLML  0.427 ± 0.0081
66. LAEHIFLVLDHG  0.432 ± 0.0071
67. LPSPLLFLPALF  0.436 ± 0.011
68. LVSYHKMAISSF  0.44 ± 0.022
69. LCFLVALASMLF  0.462 ± 0.026
70. LPPHLPFPLSAA  0.462 ± 0.019
71. LVCLFFLSSLFF  0.464 ± 0.02
72. LYCGLIFFLRGV  0.472 ± 0.029
73. LFPVASLCLART  0.524 ± 0.023
74. LDFPPLRLILRL  0.538 ± 0.049
75. LSLGVGSDAEGG  0.645 ± 0.007
76. LQSVAFERGGPD  0.661 ± 0.0084
77. MIQPRLANIIIS  0.6987 ± 0.0051
78. LLVLPFFSLSRF  0.763 ± 0.017
